Test results reported in publication PMC9482650, “Quantitative fragmentomics allow affinity mapping of interactomes” (Nature Communications, 2022).

T1: APBA1_2, Q02410
T1 sequence (Q02410 742-832, limits assumed, looked up): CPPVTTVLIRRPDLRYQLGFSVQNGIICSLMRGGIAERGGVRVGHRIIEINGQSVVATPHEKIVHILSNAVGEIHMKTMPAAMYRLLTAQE

T2: APBA2_1, Q99767
T2 sequence (Q99767 563-664, limits assumed, looked up): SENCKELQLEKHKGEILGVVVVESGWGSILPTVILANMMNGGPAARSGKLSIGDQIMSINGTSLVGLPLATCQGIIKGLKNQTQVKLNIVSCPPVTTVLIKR

T3: DLG3_3, Q92796
T3 sequence (Q92796 374-475, limits assumed, looked up): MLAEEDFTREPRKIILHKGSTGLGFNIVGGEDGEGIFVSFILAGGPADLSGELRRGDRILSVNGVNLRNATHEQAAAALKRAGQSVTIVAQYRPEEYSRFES

T4: MPDZ_10, O75970
T4 sequence (O75970 1624-1722, limits assumed, looked up): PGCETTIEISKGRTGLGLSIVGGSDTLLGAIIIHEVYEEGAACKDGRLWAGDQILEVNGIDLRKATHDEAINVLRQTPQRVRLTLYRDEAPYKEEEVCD

T5: NHERF3_1, Q5T2W1
T5 sequence (Q5T2W1 4-100, limits assumed, looked up): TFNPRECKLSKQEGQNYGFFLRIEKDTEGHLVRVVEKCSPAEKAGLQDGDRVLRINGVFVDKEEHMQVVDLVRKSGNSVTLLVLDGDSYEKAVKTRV

T6: PARD3B_1, Q8TEW8
T6 sequence (Q8TEW8 196-299, limits assumed, looked up): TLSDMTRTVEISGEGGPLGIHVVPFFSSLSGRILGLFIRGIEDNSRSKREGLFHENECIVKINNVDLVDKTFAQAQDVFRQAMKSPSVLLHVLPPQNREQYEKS

T7: PDZRN3_1, Q9UPQ7
T7 sequence (Q9UPQ7 244-349, limits assumed, looked up): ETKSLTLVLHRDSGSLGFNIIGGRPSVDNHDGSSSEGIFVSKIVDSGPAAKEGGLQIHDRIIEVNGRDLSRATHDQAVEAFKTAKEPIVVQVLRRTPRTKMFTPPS

T8: PTPN13_1, Q12923
T8 sequence (Q12923 1088-1188, limits assumed, looked up): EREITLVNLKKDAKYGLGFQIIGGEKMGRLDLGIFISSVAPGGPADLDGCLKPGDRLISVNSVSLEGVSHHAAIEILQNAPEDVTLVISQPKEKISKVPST

T9: SNTG2, Q9NY99
T9 sequence (Q9NY99 68-166, limits assumed, looked up): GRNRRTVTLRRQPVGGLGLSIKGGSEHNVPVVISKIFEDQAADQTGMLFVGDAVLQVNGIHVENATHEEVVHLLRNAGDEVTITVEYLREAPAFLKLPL

T10: TIAM2, Q8IVF5
T10 sequence (Q8IVF5 885-986, limits assumed, looked up): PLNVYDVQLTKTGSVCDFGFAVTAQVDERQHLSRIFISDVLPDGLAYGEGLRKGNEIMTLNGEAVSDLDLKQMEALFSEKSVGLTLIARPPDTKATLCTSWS

B1: CES3, Q6UWW8 (peptide)
chain: QKNRKAQEDL
B2: TANC1, Q9C0D5 (peptide)
chain: PKRSFIESNV
B3: ZNF831, Q5JPB2 (peptide)
chain: DDEDRLVIEI

biological target: T1, APBA1_2, Q02410; assay: holdup assay; parameters: key: below the threshold = too weak to quantify, mostly under pKd 3.1 to 4; conditions: plain residues with an end cap or a label only (N-terminal biotin on a linker: ado-ado)

| Binder | pKd |
| --- | --- |
| B1 | below the threshold |
| B2 | 3.68 |
| B3 | below the threshold |

biological target: T2, APBA2_1, Q99767; assay: holdup assay; parameters: key: below the threshold = too weak to quantify, mostly under pKd 3.1 to 4; conditions: plain residues with an end cap or a label only (N-terminal biotin on a linker: ado-ado)

| Binder | pKd |
| --- | --- |
| B1 | below the threshold |
| B2 | below the threshold |
| B3 | below the threshold |

biological target: CASK, O14936; assay: holdup assay; parameters: key: below the threshold = too weak to quantify, mostly under pKd 3.1 to 4; conditions: plain residues with an end cap or a label only (N-terminal biotin on a linker: ado-ado)
Sequence (O14936 487-570): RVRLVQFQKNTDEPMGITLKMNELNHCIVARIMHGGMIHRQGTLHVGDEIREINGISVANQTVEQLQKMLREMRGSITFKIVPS

| Binder | pKd |
| --- | --- |
| B1 | below the threshold |
| B2 | below the threshold |
| B3 | below the threshold |

biological target: T3, DLG3_3, Q92796; assay: holdup assay; parameters: key: below the threshold = too weak to quantify, mostly under pKd 3.1 to 4; conditions: plain residues with an end cap or a label only (N-terminal biotin on a linker: ado-ado)

| Binder | pKd |
| --- | --- |
| B1 | below the threshold |
| B2 | 4.23 |
| B3 | below the threshold |

biological target: FRMPD2_2, Q68DX3; assay: holdup assay; parameters: key: below the threshold = too weak to quantify, mostly under pKd 3.1 to 4; conditions: plain residues with an end cap or a label only (N-terminal biotin on a linker: ado-ado)
Sequence (Q68DX3 944-1038): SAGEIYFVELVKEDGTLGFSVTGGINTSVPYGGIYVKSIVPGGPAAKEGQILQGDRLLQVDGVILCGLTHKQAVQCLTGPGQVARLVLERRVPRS

| Binder | pKd |
| --- | --- |
| B1 | below the threshold |
| B2 | 3.8 |
| B3 | below the threshold |

biological target: FRMPD2_3, Q68DX3; assay: holdup assay; parameters: key: below the threshold = too weak to quantify, mostly under pKd 3.1 to 4; conditions: plain residues with an end cap or a label only (N-terminal biotin on a linker: ado-ado)
Sequence (Q68DX3 1073-1166): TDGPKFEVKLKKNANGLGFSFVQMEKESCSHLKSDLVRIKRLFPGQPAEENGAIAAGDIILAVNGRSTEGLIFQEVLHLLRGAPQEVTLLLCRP

| Binder | pKd |
| --- | --- |
| B1 | below the threshold |
| B2 | below the threshold |
| B3 | below the threshold |

biological target: GORASP1, Q9BQQ3; assay: holdup assay; parameters: key: below the threshold = too weak to quantify, mostly under pKd 3.1 to 4; conditions: plain residues with an end cap or a label only (N-terminal biotin on a linker: ado-ado)
Sequence (Q9BQQ3 1-208): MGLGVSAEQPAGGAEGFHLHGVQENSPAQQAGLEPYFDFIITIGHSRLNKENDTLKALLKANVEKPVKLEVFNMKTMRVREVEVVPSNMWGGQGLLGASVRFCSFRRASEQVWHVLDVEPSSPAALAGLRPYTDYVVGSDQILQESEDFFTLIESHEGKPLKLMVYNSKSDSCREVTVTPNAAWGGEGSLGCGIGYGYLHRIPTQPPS

| Binder | pKd |
| --- | --- |
| B1 | below the threshold |
| B2 | below the threshold |
| B3 | 4.12 |

biological target: GRIP2_3, Q9C0E4; assay: holdup assay; parameters: key: below the threshold = too weak to quantify, mostly under pKd 3.1 to 4; conditions: plain residues with an end cap or a label only (N-terminal biotin on a linker: ado-ado)
Sequence (Q9C0E4 238-339): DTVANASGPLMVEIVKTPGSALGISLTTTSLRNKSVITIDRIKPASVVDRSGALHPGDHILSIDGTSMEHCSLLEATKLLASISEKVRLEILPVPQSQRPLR

| Binder | pKd |
| --- | --- |
| B1 | below the threshold |
| B2 | below the threshold |
| B3 | below the threshold |

biological target: GRIP2_4, Q9C0E4; assay: holdup assay; parameters: key: below the threshold = too weak to quantify, mostly under pKd 3.1 to 4; conditions: plain residues with an end cap or a label only (N-terminal biotin on a linker: ado-ado)
Sequence (Q9C0E4 446-548): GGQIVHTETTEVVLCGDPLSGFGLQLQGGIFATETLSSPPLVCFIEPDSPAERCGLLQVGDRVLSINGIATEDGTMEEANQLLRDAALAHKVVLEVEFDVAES

| Binder | pKd |
| --- | --- |
| B1 | below the threshold |
| B2 | below the threshold |
| B3 | below the threshold |

biological target: GRIP2_5, Q9C0E4; assay: holdup assay; parameters: key: below the threshold = too weak to quantify, mostly under pKd 3.1 to 4; conditions: plain residues with an end cap or a label only (N-terminal biotin on a linker: ado-ado)
Sequence (Q9C0E4 544-642): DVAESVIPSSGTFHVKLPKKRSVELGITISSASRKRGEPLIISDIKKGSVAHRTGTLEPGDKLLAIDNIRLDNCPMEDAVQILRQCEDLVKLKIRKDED

| Binder | pKd |
| --- | --- |
| B1 | below the threshold |
| B2 | below the threshold |
| B3 | below the threshold |

biological target: GRIP2_6, Q9C0E4; assay: holdup assay; parameters: key: below the threshold = too weak to quantify, mostly under pKd 3.1 to 4; conditions: plain residues with an end cap or a label only (N-terminal biotin on a linker: ado-ado)
Sequence (Q9C0E4 648-740): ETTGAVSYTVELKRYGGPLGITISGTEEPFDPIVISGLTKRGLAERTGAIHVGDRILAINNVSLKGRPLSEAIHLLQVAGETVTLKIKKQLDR

| Binder | pKd |
| --- | --- |
| B1 | below the threshold |
| B2 | below the threshold |
| B3 | below the threshold |

biological target: HTRA2, O43464; assay: holdup assay; parameters: key: below the threshold = too weak to quantify, mostly under pKd 3.1 to 4; conditions: plain residues with an end cap or a label only (N-terminal biotin on a linker: ado-ado)
Sequence (O43464 355-458): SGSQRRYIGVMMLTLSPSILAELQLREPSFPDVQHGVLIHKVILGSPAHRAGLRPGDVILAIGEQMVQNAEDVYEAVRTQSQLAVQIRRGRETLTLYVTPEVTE

| Binder | pKd |
| --- | --- |
| B1 | below the threshold |
| B2 | below the threshold |
| B3 | below the threshold |

biological target: Inadl_2, Q8NI35; assay: holdup assay; parameters: key: below the threshold = too weak to quantify, mostly under pKd 3.1 to 4; conditions: plain residues with an end cap or a label only (N-terminal biotin on a linker: ado-ado)
Sequence (Q8NI35 238-335): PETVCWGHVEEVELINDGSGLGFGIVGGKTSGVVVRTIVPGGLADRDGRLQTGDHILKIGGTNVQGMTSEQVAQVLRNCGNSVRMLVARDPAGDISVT

| Binder | pKd |
| --- | --- |
| B1 | below the threshold |
| B2 | below the threshold |
| B3 | 3.57 |

biological target: LAP2, Q96RT1; assay: holdup assay; parameters: key: below the threshold = too weak to quantify, mostly under pKd 3.1 to 4; conditions: plain residues with an end cap or a label only (N-terminal biotin on a linker: ado-ado)
Sequence (Q96RT1 other isoform, or with tags, fused parts or gaps): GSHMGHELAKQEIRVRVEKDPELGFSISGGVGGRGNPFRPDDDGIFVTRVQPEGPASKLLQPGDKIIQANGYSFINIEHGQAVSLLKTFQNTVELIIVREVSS

| Binder | pKd |
| --- | --- |
| B1 | below the threshold |
| B2 | 5.27 |
| B3 | below the threshold |

biological target: LNX1_1, Q8TBB1; assay: holdup assay; parameters: key: below the threshold = too weak to quantify, mostly under pKd 3.1 to 4; conditions: plain residues with an end cap or a label only (N-terminal biotin on a linker: ado-ado)
Sequence (Q8TBB1 261-371): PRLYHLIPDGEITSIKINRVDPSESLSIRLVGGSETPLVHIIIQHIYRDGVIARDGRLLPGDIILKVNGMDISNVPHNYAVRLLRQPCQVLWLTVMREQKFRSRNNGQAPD

| Binder | pKd |
| --- | --- |
| B1 | below the threshold |
| B2 | 4.08 |
| B3 | below the threshold |

biological target: LNX1_2, Q8TBB1; assay: holdup assay; parameters: key: below the threshold = too weak to quantify, mostly under pKd 3.1 to 4; conditions: plain residues with an end cap or a label only (N-terminal biotin on a linker: ado-ado)
Sequence (Q8TBB1 371-470): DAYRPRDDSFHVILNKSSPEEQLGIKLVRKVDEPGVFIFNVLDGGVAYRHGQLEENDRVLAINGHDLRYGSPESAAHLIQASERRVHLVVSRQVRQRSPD

| Binder | pKd |
| --- | --- |
| B1 | below the threshold |
| B2 | below the threshold |
| B3 | below the threshold |

biological target: MAGI1_1, Q96QZ7; assay: holdup assay; parameters: key: below the threshold = too weak to quantify, mostly under pKd 3.1 to 4; conditions: plain residues with an end cap or a label only (N-terminal biotin on a linker: ado-ado)
Sequence (Q96QZ7 1-106): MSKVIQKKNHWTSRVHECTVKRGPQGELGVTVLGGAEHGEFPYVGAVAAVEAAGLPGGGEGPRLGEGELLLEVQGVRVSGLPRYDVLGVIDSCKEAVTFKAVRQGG

| Binder | pKd |
| --- | --- |
| B1 | below the threshold |
| B2 | below the threshold |
| B3 | below the threshold |

biological target: T4, MPDZ_10, O75970; assay: holdup assay; parameters: key: below the threshold = too weak to quantify, mostly under pKd 3.1 to 4; conditions: plain residues with an end cap or a label only (N-terminal biotin on a linker: ado-ado)

| Binder | pKd |
| --- | --- |
| B1 | below the threshold |
| B2 | below the threshold |
| B3 | below the threshold |

biological target: NHERF2_2, Q15599; assay: holdup assay; parameters: key: below the threshold = too weak to quantify, mostly under pKd 3.1 to 4; conditions: plain residues with an end cap or a label only (N-terminal biotin on a linker: ado-ado)
Sequence (Q15599 142-238): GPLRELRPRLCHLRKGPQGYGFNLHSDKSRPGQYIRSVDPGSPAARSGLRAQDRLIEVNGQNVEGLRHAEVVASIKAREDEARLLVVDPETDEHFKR

| Binder | pKd |
| --- | --- |
| B1 | below the threshold |
| B2 | below the threshold |
| B3 | below the threshold |

biological target: T5, NHERF3_1, Q5T2W1; assay: holdup assay; parameters: key: below the threshold = too weak to quantify, mostly under pKd 3.1 to 4; conditions: plain residues with an end cap or a label only (N-terminal biotin on a linker: ado-ado)

| Binder | pKd |
| --- | --- |
| B1 | below the threshold |
| B2 | 4.3 |
| B3 | below the threshold |

biological target: T6, PARD3B_1, Q8TEW8; assay: holdup assay; parameters: key: below the threshold = too weak to quantify, mostly under pKd 3.1 to 4; conditions: plain residues with an end cap or a label only (N-terminal biotin on a linker: ado-ado)

| Binder | pKd |
| --- | --- |
| B1 | below the threshold |
| B2 | below the threshold |
| B3 | 3.62 |

biological target: PARD3_3, Q8TEW0; assay: holdup assay; parameters: key: below the threshold = too weak to quantify, mostly under pKd 3.1 to 4; conditions: plain residues with an end cap or a label only (N-terminal biotin on a linker: ado-ado)
Sequence (Q8TEW0 582-685): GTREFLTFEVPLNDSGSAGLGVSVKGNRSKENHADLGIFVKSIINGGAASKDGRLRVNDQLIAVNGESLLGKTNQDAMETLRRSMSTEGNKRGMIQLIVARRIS

| Binder | pKd |
| --- | --- |
| B1 | below the threshold |
| B2 | below the threshold |
| B3 | 4.98 |

biological target: T7, PDZRN3_1, Q9UPQ7; assay: holdup assay; parameters: key: below the threshold = too weak to quantify, mostly under pKd 3.1 to 4; conditions: plain residues with an end cap or a label only (N-terminal biotin on a linker: ado-ado)

| Binder | pKd |
| --- | --- |
| B1 | below the threshold |
| B2 | 3.87 |
| B3 | below the threshold |

biological target: T8, PTPN13_1, Q12923; assay: holdup assay; parameters: key: below the threshold = too weak to quantify, mostly under pKd 3.1 to 4; conditions: plain residues with an end cap or a label only (N-terminal biotin on a linker: ado-ado)

| Binder | pKd |
| --- | --- |
| B1 | below the threshold |
| B2 | below the threshold |
| B3 | below the threshold |

biological target: T9, SNTG2, Q9NY99; assay: holdup assay; parameters: key: below the threshold = too weak to quantify, mostly under pKd 3.1 to 4; conditions: plain residues with an end cap or a label only (N-terminal biotin on a linker: ado-ado)

| Binder | pKd |
| --- | --- |
| B1 | below the threshold |
| B2 | 4.71 |
| B3 | below the threshold |

biological target: T10, TIAM2, Q8IVF5; assay: holdup assay; parameters: key: below the threshold = too weak to quantify, mostly under pKd 3.1 to 4; conditions: plain residues with an end cap or a label only (N-terminal biotin on a linker: ado-ado)

| Binder | pKd |
| --- | --- |
| B1 | 4.08 |
| B2 | below the threshold |
| B3 | 3.9 |

biological target: TJP1_3, Q07157; assay: holdup assay; parameters: key: below the threshold = too weak to quantify, mostly under pKd 3.1 to 4; conditions: plain residues with an end cap or a label only (N-terminal biotin on a linker: ado-ado)
Sequence (Q07157 416-512): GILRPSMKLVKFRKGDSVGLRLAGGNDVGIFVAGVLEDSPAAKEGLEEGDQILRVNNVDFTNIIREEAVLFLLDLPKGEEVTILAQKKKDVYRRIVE

| Binder | pKd |
| --- | --- |
| B1 | below the threshold |
| B2 | below the threshold |
| B3 | below the threshold |
